Results taken from patent US20250333541A1, “ANTIBODY, AND DRUG CONJUGATE AND USE THEREOF” (EVOPOINT BIOSCIENCES CO., LTD., priority 2022, published 2025).

Key:
human TF-His [1] = biological target: T1, human TF-His (human, UniProt P13726 33-251); experiment: antigenic protein-based ELISA on TF antigen (coating antigen not named, taken as human TF-His), antibody kept 14 days in human serum at 37 C
T1 construct: range 33-251; Recombinant extracellular segment expressed in HEK293-EBNA cells and purified on a nickel column; also called h.TF-His; h; TF-his; not shown: His tag from vector pTT5-His
Procedure: The ELISA plate was coated overnight with TF antigen (h.TF-His or c.TF-His antigen) in 50 mM carbonate coating buffer (CBS coating solution) at a coating concentration of 1 μg/mL in a volume of 100 μL at 4° C. The next day, the coating solution was removed, each well was washed once with 300 μL of PBS, and 100 μL of 2% BSA (Biotopped, A6020) in PBS was added to each well for blocking at 37° C. for 2 h. The test sample was subjected to a gradient dilution with 2% BSA in PBS to establish 11 concentration points. 100 μL of each of the samples obtained by the gradient dilution was added to the plate, and the plate was incubated at 37° C. for 2 h. The supernatant was removed, and each well was washed three times with 300 μL of PBST. 100 μL of HRP-conjugated secondary antibody in 2% BSA was added to each well, and the plate was incubated at 37° C. for 1 h. […] At the end of the incubation, the secondary antibody was removed, each well was washed five times with 300 μL of PBST, and 100 μL of TMB substrate (Huzhou InnoReagents Co., Ltd., TMB-S-004) was added to each well for color development for 5-20 min. 50 μL of 2 N HCl was added to each well to stop the reaction, and OD450 nm values were read using a microplate reader (manufacturer: MD, model: SpectraMax) and imported into GraphPad software for fitting and plotting to determine the binding of the samples to TF antigenic proteins. […]

[2] = biological target: T2, tissue factor (TF) on the surface of TF-positive tumor cells (human, UniProt P13726 33-295); experiment: flow cytometry on NCI-H358 cells
T2 construct: whole, on cells; The cell line used is named under assay or readout in each row; also called TF on NCI-H358 cells; TF on KYSE520 cells
Procedure: A TF low/medium-expressing cell line NCI-H358 (source: Nanjing Cobioer, CBP60136) and a TF high-expressing cell line KYSE520 (source: Nanjing Cobioer, CBP60658) were digested with trypsin, collected by centrifugation, and washed three times with pre-cooled PBS. The cells were resuspended in 1% BSA and seeded into a 96-well sharp-bottom plate at 3×10⁵ cells/well. Each of the antibodies obtained by the gradient dilution was added, and the plate was incubated at 4° C. for 1 h. The cells were washed three times with pre-cooled PBS. 1 μL of anti-human fluorescent secondary antibody (APC anti-human IgG Fc Antibody, Biolegend, 410712) was added to each well, and the plate was incubated at 4° C. for 0.5 h. The cells were washed three times with pre-cooled PBS, resuspended, and detected by a flow cytometer (Sony, LE-SA3800GA). The data were imported into GraphPad software for curve fitting.

[3] = biological target: T2, tissue factor (TF) on the surface of …; experiment: cell-based or functional assay
cynomolgus monkey TF-His [4] = biological target: T3, cynomolgus monkey TF-His (cynomolgus monkey, UniProt A0A2K5VX02 33-253); experiment: ELISA, plate coated with c.TF-His
T3 construct: range 33-252; Recombinant extracellular segment expressed in HEK293-EBNA cells and purified on a nickel column; also called c.TF-His; c; TF-his; not shown: His tag from vector pTT5-His
T3 sequence: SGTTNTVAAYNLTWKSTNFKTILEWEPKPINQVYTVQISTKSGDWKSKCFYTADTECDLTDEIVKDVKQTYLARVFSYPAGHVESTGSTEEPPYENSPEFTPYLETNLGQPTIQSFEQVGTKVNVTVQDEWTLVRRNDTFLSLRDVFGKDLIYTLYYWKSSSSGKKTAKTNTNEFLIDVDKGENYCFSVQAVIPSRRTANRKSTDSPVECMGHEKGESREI
Procedure: (§1) The ELISA plate was coated overnight with TF antigen (h.TF-His or c.TF-His antigen) in 50 mM carbonate coating buffer (CBS coating solution) at a coating concentration of 1 μg/mL in a volume of 100 μL at 4° C. The next day, the coating solution was removed, each well was washed once with 300 μL of PBS, and 100 μL of 2% BSA (Biotopped, A6020) in PBS was added to each well for blocking at 37° C. for 2 h. The test sample was subjected to a gradient dilution with 2% BSA in PBS to establish 11 concentration points. 100 μL of each of the samples obtained by the gradient dilution was added to the plate, and the plate was incubated at 37° C. for 2 h. The supernatant was removed, and each well was washed three times with 300 μL of PBST. 100 μL of HRP-conjugated secondary antibody in 2% BSA was added to each well, and the plate was incubated at 37° C. for 1 h. […] At the end of the incubation, the secondary antibody was removed, each well was washed five times with 300 μL of PBST, and 100 μL of TMB substrate (Huzhou InnoReagents Co., Ltd., TMB-S-004) was added to each well for color development for 5-20 min. 50 μL of 2 N HCl was added to each well to stop the reaction, and OD450 nm values were read using a microplate reader (manufacturer: MD, model: SpectraMax) and imported into GraphPad software for fitting and plotting to determine the binding of the samples to TF antigenic proteins.
The assay was performed as described in the general methods. Briefly, an ELISA plate coated with a human TF-his protein or a cynomolgus monkey TF-his protein was blocked with 2% BSA at 37° C. for 2 h, and each of the antibodies obtained by the gradient dilution (starting at 10 μg/mL, 3-fold graded dilution, 11 concentration points) was added. The plate was incubated at 37° C. for 2 h.

cynomolgus monkey TF-His [5] = biological target: T3, cynomolgus monkey TF-His; experiment: BLI (ForteBio Octet), antibody on ProA sensor, TF-His as analyte
Procedure: The dynamic affinity of the humanized antibodies was determined by ForteBio. The experimental procedures were as follows: a ProA sensor (18-5010, Octet) was taken out and pre-wetted with a PBST diluent (pH 7.4) for 10 min. The antibodies to be immobilized were diluted to 5 μg/mL. […] The program was set up, the sensor plate and sample plate were put in, then the program started. The sensor was regenerated with 20 mM glycine solution (pH 1.7). The data were analyzed using Octet analysis software to derive a result graph.

human TF-His [6] = biological target: T1, human TF-His; experiment: antigenic protein-based ELISA, before conjugation (TF antigen species not stated)
Procedure: as §1

B1: 22F11H5-hz1 (antibody, human IgG1, kappa, V domains shown)
VH: QVQLVQSGAEVKQPGASVKVSCKASGYTFTTYWMHWVRQAPGQGLEWMGMIDPSDSYTTYAQKFQGRVTLTVDTSTSTAYMELSSLRSEDTAVYYCARGSGPGLFAYWGQGTLVTVSS
VL: DIQETQSPSSLSASVGDRVTITCRASQDIRNYLNWYQQKPGKAPKLLIYHTSRLQSGVPSRFSGSGSGTDYTLTISSLQPEDFATYYCQQGNMPPYTFGQGTKVEIKR
notes: Humanized IgG1 kappa
Human TF-His [1]
  EC50 (read off the curve): ~0.03 µg/mL
[2]
  EC50: 0.0671 µg/mL
[3]
  coagulation time V50 (s), MDA-MB-231 cells + human plasma, 2 mM Ca2+, 50 µg/mL antibody: 1640 s
  coagulation time V50 (s), MDA-MB-231 cells + human plasma, 5 mM Ca2+, 20 µg/mL antibody: 49.4 s
Cynomolgus monkey TF-His [4]
  EC50: 0.0114 µg/mL
Cynomolgus monkey TF-His [5]
  Kd: 12.7 nM
  koff: 0.00411 s⁻¹
  kon: 324000 M⁻¹ s⁻¹
Human TF-His [6]
  EC50: 0.00515 µg/mL

B2: 27H8H3-hz1 (antibody, human IgG1, kappa, V domains shown)
VH: QVQLVQSGAEVKKPGASVKVSCKASGYTFTTYWMHWVRQAPGQGLEWMGMIDPSDSYTSYAQKFQGRVTLTVDTSTSTAYMELSSLRSEDTAVYYCTRGSGPGLFAYWGQGTLVTVSS
VL: DIQETQSPSSLSASVGDRVTITCRASQGISNYLNWYQQKPGKAPKLLIYHTSRLHSGVPSRFSGSVSGTDFTLTISSLQPEDFATYFCQQGNTLPYTFGQGTKVEIKR
notes: Humanized IgG1 kappa
Human TF-His [1]
  EC50 (read off the curve): ~0.05 µg/mL
[2]
  EC50: 0.0991 µg/mL
[3]
  coagulation time V50 (s), MDA-MB-231 cells + human plasma, 2 mM Ca2+, 50 µg/mL antibody: 750 s
  coagulation time V50 (s), MDA-MB-231 cells + human plasma, 5 mM Ca2+, 20 µg/mL antibody: 26.2 s
Cynomolgus monkey TF-His [4]
  EC50: 0.0114 µg/mL
Cynomolgus monkey TF-His [5]
  Kd: 42.5 nM
  koff: 0.0125 s⁻¹
  kon: 295000 M⁻¹ s⁻¹
Human TF-His [6]
  EC50: 0.00313 µg/mL
